Measured values published in the DeepSol protein solubility set.

Test: soluble on expression in E. coli; label from the status in PepcDB or PDB records

Sequence	soluble on expression in E. coli
MAHHHHHHMRSTPHGPPPHPRTSSVRQDAITYPYAYAAPGRQAPSAGYEHDDNTTAEAGPTRRCVPGRGNRAMPASNTGPYPSDVNRTLSYPEPAPARTAAPAVAIMQPSSPFEQDHTPVVYTVQNTTTDTHRHETEYGGVLTIRTTTVTRTITERLVASDEDDDSSENGEVYLDDARNEASVPSLHR	not soluble
NEDNSFTVRANMTYAVSKVVHWDQDAVRYPYQSYSDVNYGVMRGLVALGLFQNQDEINRSPKQTYGEVRPGDIRYKDVNADGKIDDDDIVPIAHSNVPQIQYGFALEYRYKRWTISALFTGAAKVNFLYGGSGFYPFSGGEVGNILSIVNDPKNRWTPAWYSGDPSTENPNARFPRLTYGENKNNNRASTFWLADGSYLRWKSLDISYRIGTNKVLRTVGISDMNLQFVGQNLAVWDSVKLWDPGQASKNGAVYPLQRTFSLQLTATF	not soluble
MSLKEKLVAIVGPTAVGKTKTSVMLAKRLNGEVISGDSMQVYRGMDIGTAKITAEEMDGVPHHLIDIKDPSESFSVADFQDLATPLITEIHERGRLPFLVGGTGLYVNAVIHQFNLGDIRADEDYRHELEAFVNSYGVQALHDKLSKIDPKAAAAIHPNNYRRVIRALEIIKLTGKTVTEQARHEEETPSPYNLVMIGLTMERDVLYDRINRRVDQMVEEGLIDEAKKLYDRGIRDCQSVQAIGYKEMYDYLDGNVTLEEAIDTLKRNSRRYAKRQLTWFRNKANVTWFDMTDVDFDKKIMEIHNFIAGKLEEKSKEGHHHHHH	soluble
MAHHHHHHMKYRYDEKIHKGLYSEDNSTSMNNRYNNNESTYKMPKEILNRHEKIDLNSLPIDEEIINNLKIILNIEKLYMYQYIIYNEILKNSKHLLIYNKTGTGKTLSYLLPLIQKLINDKFDCNKKVLIITQNIYLCKQLYIYILSIYPTLNVCILSDEKESYNMNNNINNDIIVNIKRNNINPNDKENNDMCDEKYGIHFYLCTPNKLEYFIKNYKNKSRNDKNVMNNILNNINTIVIDEFDYIVEYRKNILNFFFKKDLFNEIHNNNNIRDKNRFNHDIFNKSNYNIYLFTANINEVIKKKIYEHLNGFVFFDFINGIKEHIQKQVAEQHNFNIDVLKNSENVVQLLNKENKNESLCNLNITHFVCKINSASKYKYVCYFLEEFFFHKQKISQKVYNDMVYDEYDKLNYRNMIPMEENKFVNNSEKEGNMKRSNADKINKCIIFANTKEEVEKLYEISLLKPHAVMMHSELLTIQKNENINLFKVGKKNVLITTDIISRGLDIDNVIFILNYSPPTSPNDYIHRSGRTGRGKEKGICLTMYHKYEYRNVDKIMKYTKNKFEVILCPKVEDVYKFSVDKLVENVMKIAPEKYEFFNEKSKELLKKHNTKIIAQILSILLKFDKKSFDVSLLSGKKNYVAVLIKDPFFEVIKNRDDIINIIKVITGNKIITTIIGDVAKCDEGFIVDISSSHVNKIISLFNSSNFEYKSKGLEINTLIELPPIIKEKKNIIRRKKKAPWIT	not soluble
SAFQKAASLLGAPIGHDFCVISLSDLMTPWERIERRILAAAQADFVTAVYNPKSDGRYWQIYRLREIFLREGRSPETPVGYVRQAGREEQEIHITTLAAFDPETVDMFTVVLIGNSQTY	not soluble
MPMKDVLSRIGIGSATVDTVLPTDSVRAGESVRAEVHVEGGSTDQNIDSVYFALETEYKSDEGYKDAIIDQWQLTEPFTIEAGEKRRFETTIDIPRETPVTTRSTAVEIETGLDISMAVDPGDEDYIEVEPTHRTQAVFDALDSLGFSLHASACEAAAGSLFTTSANFAQEFEFRPQRGEFTGAVDEVEIVPVFDDDRLTVYLEVDRSAGLLSEVTDADERHTKLTIEAPDPDAIEPRLAEAIRELS	not soluble
MEKVHAALTNPAYWDFIVKNLSPEPGEVHEFTEANGGAVATLFEVLPQELLPEAIRAMISQALKVKRVVTVGGLNGTSAPLSYTADVKGTPVDFKGEISMNGLGNTTTLSYANEITVNIPLMGAAIEPKVGQALADLFQNEGDLTSKWISKNL	not soluble
SVFPQQTGQLAELQPQDRAGARASWMPMFQRRRRRDTHFPICIFCCGCCHRSKCGMCCKT	not soluble
MLLKTKHFGEINIDESKIIEFKDGIPGFENLKRYVVLYDGDKNSPFRWLQNVDDGELAFAVVNPFMVVKDYDFEIPDEAVESLGIESILDVMVLSIVVVPEDISKMTMNLKAPVIINTKNNKGMQVVLDTDRYSVRHYIIEELRRQEVNVGAGSDEKEK	soluble
MSTLKVVSSKLAAEIDKELMGPQIGFTLQQLMELAGFSVAQAVCRQFPLRGKTETEKGKHVFVIAGPGNNGGDGLVCARHLKLFGYNPVVFYPKRSERTEFYKQLVHQLNFFKVPVLSQDEGNWLEYLKPEKTLCIVDAIFGFSFKPPMREPFKGIVEELCKVQNIIPIVSVDVPTGWDVDKGPISQPSINPAVLVSLTVPKPCSSHIRENQTTHYVGGRFIPRDFANKFGFEPFGYESTDQILKL	soluble
MSLKQILNHARIVLADRVIDNGALEINDGRIAAIHEHALPDGEDLAGALLLPGLVEIHTDNLEKHLMPRNGVLWPILPAVITHDAQCVAAGITTVLDALAVGDLEGESVRLDTLHSSFDAINQGMREGALRADHFFHLRCELAYPGLLDELEALIAHPAVKLVSVMDHTPGQRQYRDLEQYKKYYGKKKVGWNEDTFLAAVAERKTKQAQYAGRHKQAVVELAQARGIALASHDDTDEAHIEEALRDGVAISEFPTTREAAAAAKRHGLATVMGAPNVVRGGSHSGNVAALELARHDLLDILSSDYVPASLLHGAWLLHAQAGWSLPRAVAAVSLNPAHSVGLADRGDIAVGQRADLVAMIVHGDVPLVRQVWNSGRRVFEGHHHHHH	soluble
MPCRGLHAIPAGPPEFPELATIYVVCGDKLNVMIDAGVTNSIMDSSFLEKLDLVILTHIHIDHIGLLPEILDRYKNAKVMIKNGFKKFLTTEDGVRRLNESSEKVLGDLYYIYGEFTKIDPDKVVEVEGGEMIDIGDGKTLKIIYTPGHAKHHISVVSDDILFTGDSGGAYFNGAVIPTTPPPLDYDNYVNSLRLQISLKPKVVGLAHGGLVSPNILEQHLDQMLGKESFDIGEIDIGGIGGEILRKQVEVNLRGLNEALGRNKKTLLEHHHHHH	not soluble
RRLETQKEAEANRGYGKPSLGGPFHLEDMYGNEFTEKNLLGKFSIIYFGFSNCPDICPDELDKLGLWLNTLSSKYGITLQPLFITCDPARDSPAVLKEYLSDFHPSILGLTGTFDEVKNACKKYRVYFSTPPNVKPGQDYLVDHSIFFYLMDPEGQFVDALGRNYDEKTGVDKIVEHVKSYVPAEQRAKQKEAWYSFLFK	soluble
MGSDKIHHHHHHMDMLLKKILGTFGVSGREKEISEVIKEELNKYPCEVREDKLGNIIVKLGSGREKIMLSTNMDKKGVITYHIEEDGKVRIDAIGDIKADDIIGKTVVFRSGIEGKIESEKKENNEFRDIYVNVNMGKREAVLKYISEGEAAEFGGNTFADKENVVGPYLSNRAGCYAFLKVIKEIKSIDKEVYFVFSTQGNLNGRGARAAAFEIEPDMCISVNTEKEGEVKLSEGPILVLMEKGLITNYHVKEQIISSAEKAQIKLQRCVSSESSDGSVVHKEVGGIKTGTIALPCKNKNETNETISLNDVDDLVKLLQYIVKK	not soluble
MKKILLVFLVGTMAFAAYGAEGDVQVSKSVEDSITKDYDQDGVYSSYEKALRRAQESVYVTLPEKRGYWYTMLDRIKAEEEELMPDEQARMRRKR	not soluble
MSKKQSSTPHDALFKLFLRQPETARDFLAFHLPAPIHALCDMKTLKLESRSFIDDDLRESYSDVLWSVKTEQGPGYIYCLIEHQSTSNKLIAFRMMRYAIAAMQNHLDAGYKTLPMVVPLLFYHGIESPYPYSLCWLDCFADPKLARQLYASAFPLIDVTVMPDDEIMQHRRMALLELIQKHIRQRDLMGLVEQMACLLSSGYANDRQIKGLFNYILQTGDAVRFNDFIDGVAERSPKHKESLMTIAERLRQEGEQSKALHIAKIMLESGVPLADIMRFTGLSEEELAAASRLAP	not soluble
MKYQLTALEARVIGCLLEKQVTTPEQYPLSVNGVVTACNQKTNREPVMNLSESEVQEQLDNLVKRHYLRTVSGFGNRVTKYEQRFCNSEFGDLKLSAAEVALITTLLLRGAQTPGELRSRAARMYEFSDMAEVESTLEQLANREDGPFVVRLAREPGKRENRYMHLFSGEVEDQPAVTDMSNAVDGDLQARVEALEIEVAELKQRLDSLLAHLGD	soluble
MSLDSDPDTLVVHTQLGTTAPGSPTYLAAVDRFREENPGVKIKNLVNGDDLAQVYETSRLARKEADVVMVNLYDKTLAWTDVGATVDVKPYLDDWGLRGRVLPAALADWTDDEGRVRAFPYFATNWPVAYNRALLDRAGVDAIPTTGDQLIAAARKLRAKGIAPVTVGGNDWTGQKLLAQIIQTFLSQDEARHVYSTGDFGVRGARLGIEYFAHLRDAGVFADKAQGLTSDSMTTQFNTEEAAVQSAMSSALAKVPEKVAGHTEVGGWPLADGAAHDGPTVIRAYTLIGFWISPNGVRKIEQVEKFLRFMYRPDVVARFVTESGRDMALRTDAVSTGFPLVGAAQRLGSEVSQVLLPDVYVPPAAAQPLITATSTSFTRGTSPARVRAALESAYRSVEGHHHHHH	soluble
MAHHHHHHMPTTSMQAECDKIRSSGNECRRKFSGGNLLVVATDMDGTILDPKHRLTERTKDTLYELSTRGVHIIFATGRHHSCVHATRRDLLEHYKRRSTARGVPDSPTTGYDGFYIISSNGARVHNPNGDLIFLRDLDSDVVRVLYERFGIRDHGDDPRKVISVSAYQTEKWWINRTIMSDEESLAMFGVVPELHPDLKEFPTTGVGKVCFRCYDRDILHQYEAEIKEIFHGRATAVMSSEICLDVMAAEVSKAAALREIGRILNFDPEREAIAFGDSMNDGDMLCSVAKGCIMDNGQSRLKESLPHLEVVGSSSEDGVARKLQEVFQIFHE	soluble
MSLTNLFQDDSLTLHTDLYQLNMMKAYFDDGLHERRSVFEVFFRDMPFDSGFVVFAGLERIIHYMQNLRFTETDIAYLHDELGFDGPFLEYLRNFKFKGNILAAKEGEFVFKTEPILQVEASLAEAQLIETALLNIVNFQTLIATKAARIRSVIDDETFAEFGTRRAQEMDAAIWGTRAAYIGGCDSTSNVRAGKIFGIPVSGTMAHAMVQAYRDELEAFRSYAKTHFDSIFLVDTYDTLKSGVPNAIKVAKEMGDKINFIGIRLDSGDMAFLSKKARQMLDEAGFTEAKIFASSDLDEHTILSLKAQKAKIDSWGVGTKLITAYDQPALGAVYKMAAIADENDILQDSIKLSSNTEKVSTPGKKKVYRIITNEDGLKAEGDYIALADESLENVDKLTMFHPVHTYIMKTVENFTARELLVPIFQNGELVYDMPSLDEIKAYKEENLALLWDEYKRTVRPEQYPVDLSVKCWKNKMRNIEKVRKSVQLHSPVELDMPFEGHHHHHH	soluble
RPKLTDGVQSGDVQGDRALVWSRTDRPARMIVEWDTRSVFSEPRRLVSPVTDERLDYTARIDLRGLPADQSIFYRVRFEDARDGSLSKPWFGHLRSAPSEARNIRFVWSGDTCGQGFGINPDIGGMRIYEAMRRRQPDFFLHSGDTIYADGPIPERIETESGRIWRNRVTEAKSKVAETLDEFRGNYRYNLLDDNLRRFNAEVPQIWQWDDHETTNNWSSSKQLDERYQVKDIDVLAARARQAFLEYAPLRFQRQGRDGRIYRKVAYGPLLDVFVLDMRSYRGGNSANLQARRSAATDFLGREQLQWLKRELRGSRAQWKVIAADMPIGLCVPDGKDAQGRDRWEAIANGNDGAALGRELEIADLLRFVQRAGVRNTVWLTADVHYCAAHHYSPERAAFKDFAPFWEFVAGPLNAGSFGPNALDGTFGPQVMFQKAPLVQNSSPFAGYQFFGEVEIDAQSRALTVTLRDLDGEPVFSQELQPD	not soluble
